What was measured:
[1] = biological target: SpyCas9 (Streptococcus pyogenes)
[2] = biological target: SpyCas9 (Streptococcus pyogenes); remark: listed apart in the source

repression of the target mutation at AAVS1 (T7E1 assay, ssODN template) against SpyCas9 alone [2] | Substance | mutagenesis rate by NHEJ (T7E1 assay) with the AcrIIA4-2A-Cas9 vector; SpyCas9 vector alone 8.0% [1] | mutagenesis rate by NHEJ (T7E1 assay) with the AcrIIA4-Cdt1-2A-Cas9 vector; SpyCas9 vector alone 8.0% [1]
– | AcrIIA4 (natural protein) | 0.9% | –
79.1% | AcrIIA4-hCdt1(30–120) (from UniProt Q9H211 30-120) | – | 3.7%

Source: publication PMC7584632
